{"source": "FireProtDB", "conditions": "whole UniProt chain shown", "key": {"[1]": {"conditions": "Salmonella phage P22, pH 7.3, Thermal, CD, Potassium phosphate 10 mM, KCl 100 mM, reversible: yes"}, "[2]": {"conditions": "Salmonella phage P22, pH 7.5, 20 °C, GdnHCl, CD, Tris-HCl 50 mM, KCl 100 mM, reversible: yes"}, "[3]": {"conditions": "Salmonella phage P22, pH 7.5, 20 °C, GdnHCl, Fluorescence, Tris-HCl 50 mM, KCl 100 M, reversible: yes"}, "[4]": {"conditions": "Salmonella phage P22, pH 7.5, 20 °C, Urea, Fluorescence, Tris-HCl 50 mM, KCl 100 mM, reversible: yes"}, "[5]": {"conditions": "Salmonella phage P22, pH 7.5, 25 °C, GdnHCl, CD, Tris-HCl 50 mM, KCl 250 mM"}, "[6]": {"conditions": "Salmonella phage P22, pH 7.5, 25 °C, GdnHCl, Fluorescence, Tris-HCl 50 mM, KCl 100 M, reversible: yes"}, "[7]": {"conditions": "Salmonella phage P22, pH 7.5, 25 °C, Urea, CD, Tris 50 mM, KCl 50 mM"}, "[8]": {"conditions": "Salmonella phage P22, pH 7.5, 25 °C, Urea, CD, Tris-Cl 10 mM, KCl 250 mM"}, "[9]": {"conditions": "Salmonella phage P22, pH 7.5, 25 °C, Urea, CD, Tris-HCl 50 mM, KCl 250 mM, reversible: yes"}, "[10]": {"conditions": "Salmonella phage P22, pH 7.5, Thermal, CD, Tris-HCl 50 mM, KCl 250 mM, reversible: yes"}, "[11]": {"conditions": "Salmonella phage P22, pH 7.5, Thermal, CD, Tris-HCl 50 mM, KCl 100 M, reversible: yes"}, "[12]": {"conditions": "Staphylococcus aureus (strain NCTC 8325 / PS 47), pH 8.5, Urea, fluorescence, Tris-Cl, transition: 2, reversible: yes"}, "[13]": {"conditions": "Staphylococcus aureus, pH 7, 30 °C, GdnHCl, CD, Sodium phosphate/Sodium sulfate 1.0 mM/10 mM/, reversible: yes"}, "[14]": {"conditions": "Staphylococcus aureus, pH 7, Thermal, DSC, phosphate 100 mM, reversible: yes(75%)"}, "[15]": {"conditions": "Staphylococcus aureus, pH 7.5, 25 °C, Urea, CD, Tris-HCl 0.1 M, KCl 0.2 M, reversible: yes"}}, "note": "Values joined by “and” are separate entries in the source; they are usually repeats but may differ in a detail not shown here. Identical values can stand only once.", "data": [{"protein": "Transcriptional repressor arc wild type, P03050 (protein) MKGMSKMPQFNLRWPREVLDLVRKVAEENGRSVNSEIYQRVMESFKKEGRIGA", "values": [{"measurement": "Tm", "setting": "[1]", "result": 54, "unit": "°C"}, {"measurement": "heat capacity change of unfolding", "setting": "[1]", "result": 1.6, "unit": "kcal/mol/K"}, {"measurement": "unfolding enthalpy (van 't Hoff)", "setting": "[1]", "result": 71, "unit": "kcal/mol"}, {"measurement": "unfolding free energy", "setting": "[1]", "result": 7.3, "unit": "kcal/mol"}, {"measurement": "denaturant m value", "setting": "[2]", "result": 3.27, "unit": "kcal/mol/M"}, {"measurement": "unfolding free energy", "setting": "[2]", "result": 11.1, "unit": "kcal/mol"}, {"measurement": "denaturant m value", "setting": "[3]", "result": 2.98, "unit": "kcal/mol/M"}, {"measurement": "unfolding free energy", "setting": "[3]", "result": 9.97, "unit": "kcal/mol"}, {"measurement": "denaturant m value", "setting": "[4]", "result": 1.37, "unit": "kcal/mol/M"}, {"measurement": "denaturant midpoint (higher = more stable)", "setting": "[4]", "result": 6.7, "unit": "M"}, {"measurement": "unfolding free energy", "setting": "[4]", "result": 9.58, "unit": "kcal/mol"}, {"measurement": "denaturant m value", "setting": "[5]", "result": 3, "unit": "kcal/mol/M"}, {"measurement": "denaturant midpoint (higher = more stable)", "setting": "[5]", "result": 1.1, "unit": "M"}, {"measurement": "unfolding free energy", "setting": "[5]", "result": 10.3, "unit": "kcal/mol"}, {"measurement": "denaturant m value", "setting": "[6]", "result": 3.03, "unit": "kcal/mol/M"}, {"measurement": "unfolding free energy", "setting": "[6]", "result": 10.1, "unit": "kcal/mol"}, {"measurement": "Tm", "setting": "Salmonella phage P22, pH 7.5, 25 °C, Thermal, CD, Tris-HCl 50 mM, KCl 50 mM", "result": 56.8, "unit": "°C"}, {"measurement": "unfolding free energy", "setting": "Salmonella phage P22, pH 7.5, 25 °C, Thermal, CD, Tris-HCl 50 mM, KCl 250 mM", "result": 11, "unit": "kcal/mol"}, {"measurement": "denaturant m value", "setting": "[7]", "result": 1.5, "unit": "kcal/mol/M"}, {"measurement": "unfolding free energy", "setting": "[7]", "result": 10.4, "unit": "kcal/mol"}, {"measurement": "denaturant m value", "setting": "[8]", "result": 1.21, "unit": "kcal/mol/M"}, {"measurement": "unfolding free energy", "setting": "[8]", "result": 9.92, "unit": "kcal/mol"}, {"measurement": "denaturant m value", "setting": "[9]", "result": "1.36 kcal/mol/M and 1.57 kcal/mol/M and 1.64 kcal/mol/M"}, {"measurement": "denaturant midpoint (higher = more stable)", "setting": "[9]", "result": 4.65, "unit": "M"}, {"measurement": "unfolding free energy", "setting": "[9]", "result": "6.3 kcal/mol and 10.9 kcal/mol and 11 kcal/mol"}, {"measurement": "Tm", "setting": "Salmonella phage P22, pH 7.5, Thermal, CD, Potassium phosphate 10 mM, KCl 100 mM", "result": 54, "unit": "°C"}, {"measurement": "Tm", "setting": "Salmonella phage P22, pH 7.5, Thermal, CD, Tris-HCl 50 mM, KCl 50 mM", "result": 56.8, "unit": "°C"}, {"measurement": "Tm", "setting": "[10]", "result": "58.3 °C and 59 °C and 57.9 °C"}, {"measurement": "unfolding enthalpy (van 't Hoff)", "setting": "[10]", "result": "62.3 kcal/mol and 58.5 kcal/mol"}, {"measurement": "Tm", "setting": "[11]", "result": 53.4, "unit": "°C"}, {"measurement": "unfolding enthalpy (van 't Hoff)", "setting": "[11]", "result": 55.2, "unit": "kcal/mol"}]}, {"protein": "Scaffolding protein wild type, P26748 (protein) MEPTTEIQATEDLTLSGDHAAASADSLVVDNANDNAGQEEGFEIVLKDDETAPKQDPAKNAEFARRRIERKRQRELEQQMEAVKRGELPESLRVNPDLPPQPDINAYLSEEGLAKYDYDNSRALAAFNAANTEWLMKAQDARSNAVAEQGRKTQEFTQQSAQYVEAARKHYDAAEKLNIPDYQEKEDAFMQLVPPAVGADIMRLFPEKSAALMYHLGANPEKARQLLAMDGQSALIELTRLSERLTLKPRGKQISSAPPADQPITGDVSAANKDAIRKQMDAAASKGDVETYRKLKAKLKGIR", "values": [{"measurement": "Tm", "setting": "Salmonella phage P22, pH 7.6, Thermal, Fluorescence, phosphate 0.3 micro M, NaCl 0.3 micro M", "result": 58, "unit": "°C"}]}, {"protein": "Cytidine deaminase wild type, Q9S3M0 (protein) MDVEKLIAESKKAREQAYVPYSKFPVGAALLAEDGTIYHGCNIENSAYSMTNCAERTAFFKAVSDGVRSFKALAVVADTEGPVSPCGACRQVIAEFCNGSMPVYLTNLKGDIEETTVAKLLPGAFSKEDLSYAAEQ", "values": [{"measurement": "unfolding free energy", "setting": "Sporosarcina psychrophila, pH 7, 25 °C, GdnHCl, CD, potassium phosphate 20 mM, reversible: no", "result": 3, "unit": "kcal/mol"}]}, {"protein": "Putative peptidyl-prolyl cis-trans isomerase wild type, Q2FZU9 (protein) MANYPQLNKEVQQGEIKVVMHTNKGDMTFKLFPNIAPKTVENFVTHAKNGYYDGITFHRVINDFMIQGGDPTATGMGGESIYGGAFEDEFSLNAFNLYGALSMANSGPNTNGSQFFIVQMKEVPQNMLSQLADGGWPQPIVDAYGEKGGTPWLDQKHTVFGQIIDGETTLEDIANTKVGPQDKPLHDVVIESIDVEE", "values": [{"measurement": "denaturant m value", "setting": "[12]", "result": "0.85 kcal/mol/M and 1.18 kcal/mol/M"}, {"measurement": "denaturant midpoint (higher = more stable)", "setting": "[12]", "result": "3.19 M and 1.83 M"}, {"measurement": "unfolding free energy", "setting": "[12]", "result": "2.66 kcal/mol and 2.17 kcal/mol"}]}, {"protein": "wild type, Q9EYL5 (protein) MTKKLLTLFIVSMLILTACGKKESATTSSKNGKPLVVVYGDYKCPYCKELDEKVMPKLRKNYIDNHKVEYQFVNLAFLGKDSIVGSRASHAVLMYAPKSFLDFQKQLFAAQQDENKEWLTKELLDKHIKQLHLDKETENKIIKDYKTKDSKSWKAAEKDKKIAKDNHIKTTPTAFINGEKVEDPYDYESYEKLLKDKIK", "values": [{"measurement": "denaturant midpoint (higher = more stable)", "setting": "[13]", "result": 1.66, "unit": "M"}, {"measurement": "unfolding free energy", "setting": "[13]", "result": 8, "unit": "kcal/mol"}, {"measurement": "unfolding free energy", "setting": "Staphylococcus aureus, pH 7, 30 °C, Thermal, DSC, phosphate 100 mM, reversible: yes(75%)", "result": "11.6 kcal/mol and 15.8 kcal/mol"}, {"measurement": "unfolding free energy", "setting": "Staphylococcus aureus, pH 7, 30 °C, Thermal, Fluorescence, Sodium phosphate 100 mM, EDTA 1 mM, reversible: yes", "result": 11.1, "unit": "kcal/mol"}, {"measurement": "unfolding free energy", "setting": "Staphylococcus aureus, pH 7, 30 °C, Thermal, Fluorescence, Sodium phosphate 100 mM, reversible: yes", "result": 7, "unit": "kcal/mol"}, {"measurement": "unfolding free energy", "setting": "Staphylococcus aureus, pH 7, 30 °C, Thermal, Fluorescence, phosphate 100 mM, reversible: yes(75%)", "result": "8.29 kcal/mol and 12.6 kcal/mol"}, {"measurement": "Tm", "setting": "[14]", "result": 68.4, "unit": "°C"}, {"measurement": "heat capacity change of unfolding", "setting": "[14]", "result": 2.22, "unit": "kcal/mol/K"}, {"measurement": "unfolding enthalpy (calorimetric)", "setting": "[14]", "result": 148, "unit": "kcal/mol"}, {"measurement": "unfolding enthalpy (van 't Hoff)", "setting": "[14]", "result": 137, "unit": "kcal/mol"}, {"measurement": "denaturant midpoint (higher = more stable)", "setting": "[15]", "result": "4.2 M and 5.6 M and 5.62 M"}, {"measurement": "unfolding free energy", "setting": "[15]", "result": "8.7 kcal/mol and 12.3 kcal/mol and 12.9 kcal/mol"}]}]}
